How the values were obtained:
[1] = target: T1, canine relaxin (mature relaxin in pregnant dog serum) (dog, UniProt Q9TRM8 154-177; Q9TRM8 26-60); assay: hybridoma screen for activity against relaxin-positive pregnant dog serum
T1 construct: mature; Endogenous relaxin in serum, plasma or whole blood of pregnant dogs; also called dog relaxin
Protocol: Monoclonal IgG antibodies were prepared by immunizing mice with preprorelaxin (Bioraytec Ltd., Zhuhai, China) using standard laboratory methods known in the art. Anti-preprorelaxin antibody expressing hybridomas were derived by fusing myeloma cells with splenocytes from the immunized mice. The antibodies produced by hybridoma clonal cell lines were initially screened for activity against relaxin-positive pregnant dog serum. Relaxin positivity of the serum was confirmed using the FASTest RELAXIN in vitro test (Diagnostik Megacor, Hörbranz, Austria). The serum contains mature relaxin as preprorelaxin is not present in serum, and so the selected antibodies are reactive against relaxin and not only preprorelaxin.

[2] = target: T1, canine relaxin (mature relaxin in …); assay: hybridoma screen against relaxin-positive dog serum

T1 sequence (Q9TRM8 154-177 limits assumed, chain 1 of 2): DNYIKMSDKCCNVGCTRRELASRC
T1 sequence (Q9TRM8 26-60 limits assumed, chain 2 of 2): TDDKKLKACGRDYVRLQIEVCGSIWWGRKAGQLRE

| binding result [1] | binding result [2] | Binder |
| --- | --- | --- |
| binds | – | monoclonal antibody 2H7 (antibody, V domains shown, Mouse monoclonal IgG from hybridoma; Mostly used as capture antibody on the test line; gold-labelled as detection antibody in the pair 2F10-2H7; also called capture antibody; hybridoma CCTCC C2021209) VH: DVQLQESGPDLVKPSQSLSLTCTVTGYSITSGYSWHWIRQFPGNKLEWMGYIHYSGRTNYNPSLKSRISITRDTSKNQFFLQLNSVTTEDTATYYCARSMDYWGQGTSVSVSS VL: DIKMTQSPSSMYASLGERVTITCKASQDIKTYLNWYQQKPWKSPKTLIYYATSLADGVPSRFSGSGSGQDFSLTISSLESDDTATYFCLQHGESPPTFGGGTKLEIK |
| – | binds | monoclonal antibody 9B8 (antibody, V domains shown, also called second detection antibody; hybridoma CCTCC C2021211) VH: EVKLEESGGGLVQPGGSMKLSCAASGFTFSDAWMDWVRRSPEKGLEWIAEIRSKAKNHITYYAESVKGRFTISRDDSKSSVYLQMNSLRTEDSGIYYCTGGFAYWGQGTLVTVSA VL: DAVMTQNPLSLPVSLGDQASISCRSSQSLEKSNGNTYLNWYLQKPGQSPQLLIYRVSNRFSGVPDRISGGGSGTDFTLKISRVEAEDLGVYFCVQVSHVPFTFGSGTKLEIK |
| – | binds | monoclonal antibody 2A4 (antibody, V domains shown, also called first detection antibody; hybridoma CCTCC C2021210) VH: AVNLEESGGGLVLPGGSMKLSCTASGFTFSDAWMDWVRRSPEKGLEWLAEIRDETNNHITYYAESVKVRFIISRDDSKSSVYLQMNNLRPEDTGIYYCAAGFAYWGQGTLVTVSA VL: DAVMTQTPLSLSVSLGDQASISCRSSQSLEKSNGKTYLNWYLQKPGQSPQLLIYRVSNRFSGVLDRFSGSGSGTDFTLKISRVEAEDLGLYFCLQVSHVPFTFGSGTKLEIK |

Source: patent US20240377414A1 (BELLYLABS, published 2024)
